The values that follow come from US20140031528A1 (NATIONAL UNIVERSITY CORPORATION UNIVERSITY OF TOYAMA, published 2014).

This assay has as its target human insulin (human, UniProt P01308 25-54; P01308 90-110). The assay can be described thus: ELISA, recombinant antibodies from 293FT culture. Here is the method: The full lengths of the guinea pig γ chain, κ chain, and λ chain gene expression units amplified in the above experiments were genetically introduced into 293FT cells and the cells were cultured for two days to bring about the secretion of recombinant guinea pig antibodies in the cell culture. The ability to bind human insulin of the recombinant guinea pig monoclonal antibodies obtained from the antigen specific and nonspecific plasma cells was examined by the ELISA method (FIG. 9).
(In general: An ELISA detects its analyte on a solid surface through an enzyme-linked reagent.)

Chain of human insulin (P01308 25-54 limits assumed, chain 1 of 2): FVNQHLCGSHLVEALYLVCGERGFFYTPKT
Chain of human insulin (P01308 90-110 limits assumed, chain 2 of 2): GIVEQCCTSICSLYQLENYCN

B1: guinea pig monoclonal antibody to human insulin, Sample No. 5 (antibody, V domains shown)
VH: QVQLQESGPGLVKPSETLSLTCKVSGFSLMDYSVSWIRQAPGEGLEWIGVIWSSGSTDYNSTFKSRVGMSRDTSKSQVSITLRSLSSEDTAVYYCARAQYFDVWGAGTLVTVSS
VL: QIVLTQSPASLAASPGQKVTITCTASSSVNNNFFHWYQQKPGASPTLLIYRTSRLASGVPARFSGSGSGTSYSLTISSMEGEDVATYYCLQSNSYTFGAGTRLEIK
notes: Recombinant guinea pig IgG (γ/κ) secreted by 293FT cells
With B1, the binding result was “binds”.
